According to patent US20140274782A1, “AFFINITY REAGENTS AND METHODS FOR DETECTION, PURIFICATION, AND PROTEOMIC ANALYSIS OF METHYLATED PROTEINS” (The Board of Trustees of the Leland Stanford Junior …, priority 2013, published 2014):

Assays:
[1] = system: 3×MBT domain of L3MBTL1; assay: Triple SILAC pull-down, 3xMBT/3xMBTD355N ratio (cytoplasmic, nuclear and chromatin fractions of 293T cells); format: binding, human; settings: SILAC ratio, pull-down 3xMBT vs 3xMBTD355N; for 3xMBT/D355N UNC Heavy: experiment with UNC0638 in heavy SILAC media; for 3xMBT/D355N UNC Light: experiment with UNC0638 in light SILAC media;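 for all read-outs here: proteins quantified with MaxQuant, requiring at least two unique peptides and quantification in both label directions, normalized to the mean of proteins from a digested loading control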
[2] = target: T1, G9a and GLP (Homo sapiens, UniProt Q96KQ7+Q9H9B1); assay: Triple SILAC pull-down after UNC0638 treatment of 293T cells, DMSO/UNC0638 ratio of protein captured by 3×MBT; format: cell-based; set-up: cells were treated for 24 hours with UNC0638 at 2.5 μM or DMSO vehicle control; endogenous in cells; host or cells: HEK 293T; settings: for Relative to UNC0638 UNC Heavy / Relative to UNC0638 UNC Light: SILAC ratio DMSO/UNC0638 of protein pulled down with 3xMBT; for Relative to UNC0638 UNC Heavy: UNC0638 in heavy SILAC media; for Relative to UNC0638 UNC Light: UNC0638 in light SILAC media; for Relative to UNC0638 Average: average of UNC Light and UNC Heavy experiments;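 for all read-outs here: mass spectrometry (Q-Exactive) SILAC quantitation, DMSO/UNC0638 ratio computed after subtracting 3×MBTD355N mutant pull-down background, only proteins with at least twofold 3×MBT over mutant signal considered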
T1 sequence (Q96KQ7 2-1210 limits assumed): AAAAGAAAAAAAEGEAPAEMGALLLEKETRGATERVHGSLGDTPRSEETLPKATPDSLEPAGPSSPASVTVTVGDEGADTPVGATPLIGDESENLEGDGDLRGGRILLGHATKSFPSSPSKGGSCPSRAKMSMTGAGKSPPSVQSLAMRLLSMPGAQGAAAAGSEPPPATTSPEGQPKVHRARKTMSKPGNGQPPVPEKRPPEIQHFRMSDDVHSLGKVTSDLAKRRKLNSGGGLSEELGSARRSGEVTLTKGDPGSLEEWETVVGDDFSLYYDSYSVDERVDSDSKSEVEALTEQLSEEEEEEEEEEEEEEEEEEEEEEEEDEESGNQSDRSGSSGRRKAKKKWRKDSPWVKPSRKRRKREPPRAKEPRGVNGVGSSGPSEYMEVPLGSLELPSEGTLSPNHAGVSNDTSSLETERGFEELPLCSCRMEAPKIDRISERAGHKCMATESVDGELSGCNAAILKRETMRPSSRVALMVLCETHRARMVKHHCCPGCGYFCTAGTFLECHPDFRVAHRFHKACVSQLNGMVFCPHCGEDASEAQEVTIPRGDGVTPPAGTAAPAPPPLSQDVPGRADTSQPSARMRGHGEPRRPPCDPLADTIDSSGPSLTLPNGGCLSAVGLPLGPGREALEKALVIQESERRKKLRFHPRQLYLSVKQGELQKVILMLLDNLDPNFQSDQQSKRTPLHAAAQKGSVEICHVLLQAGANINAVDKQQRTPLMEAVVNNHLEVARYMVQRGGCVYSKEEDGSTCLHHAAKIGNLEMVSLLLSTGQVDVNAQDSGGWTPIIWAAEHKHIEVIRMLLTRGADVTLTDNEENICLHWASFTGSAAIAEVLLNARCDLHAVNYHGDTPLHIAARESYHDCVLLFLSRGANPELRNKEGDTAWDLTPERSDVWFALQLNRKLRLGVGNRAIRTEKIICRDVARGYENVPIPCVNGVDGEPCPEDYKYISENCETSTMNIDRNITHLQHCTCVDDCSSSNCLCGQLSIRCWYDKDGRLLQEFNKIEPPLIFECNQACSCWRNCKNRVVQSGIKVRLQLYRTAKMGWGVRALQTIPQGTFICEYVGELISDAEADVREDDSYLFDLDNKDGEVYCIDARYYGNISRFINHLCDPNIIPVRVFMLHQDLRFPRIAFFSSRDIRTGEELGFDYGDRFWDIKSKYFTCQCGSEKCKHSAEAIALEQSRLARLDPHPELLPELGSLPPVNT
T1 sequence (Q9H9B1 2-1298 limits assumed): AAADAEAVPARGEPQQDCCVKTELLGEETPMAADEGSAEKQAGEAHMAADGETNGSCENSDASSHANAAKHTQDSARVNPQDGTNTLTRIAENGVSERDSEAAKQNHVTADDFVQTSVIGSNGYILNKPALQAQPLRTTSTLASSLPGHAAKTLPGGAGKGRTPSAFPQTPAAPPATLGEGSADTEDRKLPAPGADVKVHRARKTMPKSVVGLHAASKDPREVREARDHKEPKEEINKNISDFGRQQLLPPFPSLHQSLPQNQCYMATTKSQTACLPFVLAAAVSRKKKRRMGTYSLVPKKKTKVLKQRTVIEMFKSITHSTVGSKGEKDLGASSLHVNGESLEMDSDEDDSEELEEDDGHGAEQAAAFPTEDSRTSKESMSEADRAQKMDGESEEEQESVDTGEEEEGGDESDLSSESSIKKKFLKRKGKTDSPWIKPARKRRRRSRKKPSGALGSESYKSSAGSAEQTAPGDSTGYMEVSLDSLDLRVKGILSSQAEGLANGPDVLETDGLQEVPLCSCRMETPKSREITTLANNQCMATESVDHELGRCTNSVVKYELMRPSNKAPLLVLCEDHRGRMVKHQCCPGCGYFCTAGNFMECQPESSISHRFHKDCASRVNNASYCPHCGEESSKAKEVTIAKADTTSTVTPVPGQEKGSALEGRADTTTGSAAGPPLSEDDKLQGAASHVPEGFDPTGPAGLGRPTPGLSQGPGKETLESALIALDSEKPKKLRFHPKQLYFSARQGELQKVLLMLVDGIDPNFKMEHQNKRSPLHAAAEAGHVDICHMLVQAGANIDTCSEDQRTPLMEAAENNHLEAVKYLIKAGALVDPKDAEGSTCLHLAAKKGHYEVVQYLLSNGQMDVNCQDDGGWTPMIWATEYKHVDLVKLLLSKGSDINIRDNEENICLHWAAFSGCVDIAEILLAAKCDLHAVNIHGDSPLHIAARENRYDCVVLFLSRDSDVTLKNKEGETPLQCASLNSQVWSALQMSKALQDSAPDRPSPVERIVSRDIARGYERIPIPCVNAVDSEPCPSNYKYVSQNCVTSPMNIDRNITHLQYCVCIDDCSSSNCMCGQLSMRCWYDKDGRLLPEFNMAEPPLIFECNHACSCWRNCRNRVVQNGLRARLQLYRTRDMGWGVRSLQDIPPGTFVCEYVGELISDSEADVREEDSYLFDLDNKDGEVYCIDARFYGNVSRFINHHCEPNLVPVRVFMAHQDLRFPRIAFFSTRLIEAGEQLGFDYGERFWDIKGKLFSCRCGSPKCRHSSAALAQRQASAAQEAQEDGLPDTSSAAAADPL

Row | Molecule | 3xMBT/D355N UNC Heavy [1] | 3xMBT/D355N UNC Light [1] | Relative to UNC0638 UNC Heavy [2] | Relative to UNC0638 UNC Light [2] | Relative to UNC0638 Average [2]
1 | CNBP (protein, UniProt P62633 2-177, looked up) CCHC-type zinc finger nucleic …: SSNECFKCGRSGHWARECPTGGGRGRGMRSRGRGGFTSDRGFQFVSSSLPDICYRCGESGHLAKDCDLQEDACYNCGRGGHIAKDCKEPKREREQCCYNCGKPGHLARDCDHADEQKCYSCGEFGHIQKDCTKVKCYRCGETGHVAINCSKTSEVNCYRCGESGHLARECTIEATA | 1.05 log base 2 | 1.79 log base 2 | 0.51 log base 2 | 0.05 log base 2 | 0.28 log base 2
2 | PRPF40A (protein, UniProt O75400 1-957, looked up) Pre-mRNA-processing factor 40 …: MRPGTGAERGGLMVSEMESHPPSQGPGDGERRLSGSSLCSGSWVSADGFLRRRPSMGHPGMHYAPMGMHPMGQRANMPPVPHGMMPQMMPPMGGPPMGQMPGMMSSVMPGMMMSHMSQASMQPALPPGVNSMDVAAGTASGAKSMWTEHKSPDGRTYYYNTETKQSTWEKPDDLKTPAEQLLSKCPWKEYKSDSGKPYYYNSQTKESRWAKPKELEDLEGYQNTIVAGSLITKSNLHAMIKAEESSKQEECTTTSTAPVPTTEIPTTMSTMAAAEAAAAVVAAAAAAAAAAAAANANASTSASNTVSGTVPVVPEPEVTSIVATVVDNENTVTISTEEQAQLTSTPAIQDQSVEVSSNTGEETSKQETVADFTPKKEEEESQPAKKTYTWNTKEEAKQAFKELLKEKRVPSNASWEQAMKMIINDPRYSALAKLSEKKQAFNAYKVQTEKEEKEEARSKYKEAKESFQRFLENHEKMTSTTRYKKAEQMFGEMEVWNAISERDRLEIYEDVLFFLSKKEKEQAKQLRKRNWEALKNILDNMANVTYSTTWSEAQQYLMDNPTFAEDEELQNMDKEDALICFEEHIRALEKEEEEEKQKSLLRERRRQRKNRESFQIFLDELHEHGQLHSMSSWMELYPTISSDIRFTNMLGQPGSTALDLFKFYVEDLKARYHDEKKIIKDILKDKGFVVEVNTTFEDFVAIISSTKRSTTLDAGNIKLAFNSLLEKAEAREREREKEEARKMKRKESAFKSMLKQAAPPIELDAVWEDIRERFVKEPAFEDITLESERKRIFKDFMHVLEHECQHHHSKNKKHSKKSKKHHRKRSRSRSGSDSDDDDSHSKKKRQRSESRSASEHSSSAESERSYKKSKKHKKKSKKRRHKSDSPESDAEREKDKKEKDRESEKDRTRQRSESKHKSPKKKTGKDSGNWDTSGSELSEGELEKRRRTLLEQLDDDQ | 3.54 log base 2 | 2.13 log base 2 | 0.33 log base 2 | 0.24 log base 2 | 0.29 log base 2
3 | RBM3 (protein, UniProt P98179 1-157, looked up) RNA-binding protein 3: MSSEEGKLFVGGLNFNTDEQALEDHFSSFGPISEVVVVKDRETQRSRGFGFITFTNPEHASVAMRAMNGESLDGRQIRVDHAGKSARGTRGGGFGAHGRGRSYSRGGGDQGYGSGRYYDSRPGGYGYGYGRSRDYNGRNQGGYDRYSGGNYRDNYDN | 3.49 log base 2 | 3.25 log base 2 | 0.24 log base 2 | 0.33 log base 2 | 0.29 log base 2
4 | ZNF598 (protein, UniProt Q86UK7 1-904, looked up) E3 ubiquitin-protein ligase …: MAAAGGAEGRRAALEAAAAAAPERGGGSCVLCCGDLEATALGRCDHPVCYRCSTKMRVLCEQRYCAVCREELRQVVFGKKLPAFATIPIHQLQHEKKYDIYFADGKVYALYRQLLQHECPRCPELPPFSLFGDLEQHMRRQHELFCCRLCLQHLQIFTYERKWYSRKDLARHRMQGDPDDTSHRGHPLCKFCDERYLDNDELLKHLRRDHYFCHFCDSDGAQDYYSDYAYLREHFREKHFLCEEGRCSTEQFTHAFRTEIDLKAHRTACHSRSRAEARQNRHIDLQFSYAPRHSRRNEGVVGGEDYEEVDRYSRQGRVARAGTRGAQQSRRGSWRYKREEEDREVAAAVRASVAAQQQEEARRSEDQEEGGRPKKEEAAARGPEDPRGPRRSPRTQGEGPGPKETSTNGPVSQEAFSVTGPAAPGCVGVPGALPPPSPKLKDEDFPSLSASTSSSCSTAATPGPVGLALPYAIPARGRSAFQEEDFPALVSSVPKPGTAPTSLVSAWNSSSSSKKVAQPPLSAQATGSGQPTRKAGKGSRGGRKGGPPFTQEEEEDGGPALQELLSTRPTGSVSSTLGLASIQPSKVGKKKKVGSEKPGTTLPQPPPATCPPGALQAPEAPASRAEGPVAVVVNGHTEGPAPARSAPKEPPGLPRPLGSFPCPTPQEDFPALGGPCPPRMPPPPGFSAVVLLKGTPPPPPPGLVPPISKPPPGFSGLLPSPHPACVPSPATTTTTKAPRLLPAPRAYLVPENFRERNLQLIQSIRDFLQSDEARFSEFKSHSGEFRQGLISAAQYYKSCRDLLGENFQKVFNELLVLLPDTAKQQELLSAHTDFCNREKPLSTKSKKNKKSAWQATTQQAGLDCRVCPTCQQVLAHGDASSHQALHAARDDDFPSLQAIARIIT | 1.92 log base 2 | 3.58 log base 2 | 0.52 log base 2 | 0.06 log base 2 | 0.29 log base 2
5 | NTHL1 (protein, UniProt P78549 23-304, looked up) Endonuclease III-like protein …: GCREEPGPLRRREAAAEARKSHSPVKRPRKAQRLRVAYEGSDSEKGEGAEPLKVPVWEPQDWQQQLVNIRAMRNKKDAPVDHLGTEHCYDSSAPPKVRRYQVLLSLMLSSQTKDQVTAGAMQRLRARGLTVDSILQTDDATLGKLIYPVGFWRSKVKYIKQTSAILQQHYGGDIPASVAELVALPGVGPKMAHLAMAVAWGTVSGIAVDTHVHRIANRLRWTKKATKSPEETRAALEEWLPRELWHEINGLLVGFGQQTCLPVHPRCHACLNQALCPAAQGL | 0.48 log base 2 | 1.60 log base 2 | 0.72 log base 2 | −0.12 log base 2 | 0.30 log base 2
